# ± gives the half width of the 95% confidence interval.
# Experiment: folding stability dG unfold from trypsin proteolysis; higher = more stable
# Outline: (§1)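 Sequencing followed digestion of designed mini-proteins with trypsin and chymotrypsin, each at 11 concentrations in threefold dilutions together with a no-protease condition. The mini-proteins were under 80 residues, had no cysteine, sat in a PA-tagged cDNA display construct, and were kept only if AlphaFold2 dimer inter-PAE was above 15. From the counts, Bayesian fitting gave K50, and unfolding free energy was derived against a sequence-predicted unfolded-state K50 and a shared folded-state K50, per protease or combined.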
row,Sequence,folding stability dG unfold [kcal/mol]
1,SAGGSAGGSAGGGNLALPPRYRITVRIEKDGSTSTVEFDSEEELAALDDPGLTVTEVREESAGGSAGGSAGG [r7_793_JUSTAS],-0.743 ± 0.35
2,SAGGSAGGSAGGKTLTLEIEINGKLYKIEFSGDSIKITEIKVKPKPKKKEFFSEEELKKKSAGGSAGGSAGG [r7_748_TrROS_Hall],0.563 ± 0.089
3,SAGPTIMIPMPPKESLEEAVEKAIEWIREFFPDNLKPGKKIKIFVHVWDPDNGKQYWVTIEIPIPKGELSAG [r5_916_TrROS],2.48 ± 0.22
4,SAGGSAGGSAGGAPDLSLPDVRPRVLVRNPATGKWYEFTSLEELEREIKSGRAEVLEISSAGGSAGGSAGGS [r10_520_TrMRF],0.327 ± 0.088
5,SAGGSAGGSAGGGSTTTTTETYPENGLIFTTTTTVFDDGSLSVTTTTSPLPLPPSPFIATSAGGSAGGSAGG [r7_103_JUSTAS],1.29 ± 0.043
6,SAGGEFEVYRVKSPDSVVTVTVLPDRVVVNLTDEKNPKVVPIPYPPGHPPTLEDVLALLKSLGFKVEPSAGG [r13_687_TrMRF],1.85 ± 0.033
7,SAGGKWKPIGKFEFTLPDGVKVTVTVEENPPLELKITAEVEIYVPPPKPPVPPLGPEEVKKWLEENKSAGGS [r16_6_TrMRF],1.87 ± 0.12
8,SAGGSAKITLWIWMPPGNPDKMAEEIADYLAERHGWTVKIKDVQIERDPEDDQVWIPVKIEIQPPPSAGGSA [r15_70_TrROS],1.98 ± 0.14
9,NWYIDIDEIKEAINDAPPGDEVELPFKFYDPDDGQKFKFRVTVEVNPNGKLTSVRIQHPGSGKPHAEINLKS [r1_165_TrROS],0.636 ± 0.07
10,SAGGSAGGSAGGGMTITTTSSVSESDGGLTLSTTTTAFDPVTGTWTPLTTTTTTLPPTTSAGGSAGGSAGGS [r10_51_JUSTAS],1.65 ± 0.065
11,SAGGSAGGSAKKIVIKVKPGMTEEEILEEIAKKLGLKPEKIKKIEIERNKDGYLYVTIEIESAGGSAGGSAG [r3_26_TrROS_Hall],3.66 ± 0.16
12,SAGGSAGGSAGGTLEFTFPGEGNLLAKVRIDLGESGNVRIDVYIYDGDTLLAKATFTLNLSAGGSAGGSAGG [r7_79_TrMRF],4.55 ± 0.12
13,SAGGSAGGSAGMIVIKNPETKEYYVIKFDGKEYVIELSEDELKELLEKLKGKDVEIKKLPSAGGSAGGSAGG [r11_57_TrROS_Hall],2.01 ± 0.16
14,SAGGSARVIRNPDYGMWIRLQPTDGGYTVQIEMYRPDPEDGKPKRRPMTHTIPPDDLPPEIRDLLKSAGGSA [r15_703_TrROS],0.442 ± 0.1
15,SAGGSAEKVEIKVTYDKETGKVTVEIRVEVDLSEEQLKKLKELAEELGLEVEVTVEVRYEPPPPKESAGGSA [r15_542_TrROS_Hall],2.99 ± 0.38
16,SAGGSAGGSAGGMTITLVDPENGVKEAEIEEVDGKLRITVVNEETGEKEEIELPLEELLSAGGSAGGSAGGS [r10_772_TrROS_Hall],0.648 ± 0.063

row,Sequence,folding stability dG unfold [kcal/mol]
1,SAGGSAGGMKIIKYDKKTKKVLIYYDEETKEWYVRNKNGKIYKFKSVEEALKKLPVKVEIVKVPSAGGSAGG [r6_752_TrROS_Hall],1.5 ± 0.035
2,SAGGSAGGSAGAAPDGETVRITAVFVNPETQEVFVVEATINPDGELTMEVKEVFKLPEGLSAGGSAGGSAGG [r11_226_TrROS_Hall],1.42 ± 0.033
3,SAGGMRIYIPPELPEEKVEEIREEAEEEFPVEVTLERFPEPGYVVLEFEGEEEELYRRIEEKIREKGSAGGS [r16_227_TrMRF],1.17 ± 0.16
4,SAGGSAGGSAGMVLLKSEEEAEELRKPNVSLSVTPVPPVEVSEGDPNALAYEVELKPPLESAGGSAGGSAGG [r11_168_JUSTAS],1.49 ± 0.053
5,SAGGSAGGSALEIPFEVVDEKDFLLEGDYIVRVAELKNGLRALAIYDPKTGKVLVIVSPGGSAGGSAGGSAG [r3_438_TrMRF],1.92 ± 0.15
6,SAGGSTITTDVPEARELLEELVKAGIKNIKVTVELDGSTVTLEVPPDELEKLVEEIPPEAKVTLEASSAGGS [r16_636_JUSTAS],0.442 ± 0.019
7,SAGGSAGGSAGKTIVLKTPEAIKNLKEGDVIKLKDGKKYKIVKVEYDKETNYFTIEIEKESAGGSAGGSAGG [r11_316_TrROS_Hall],2.96 ± 0.13
8,SAGGMVEVTYDPETGTLTILLPSPSGTLGPEAVEAAARLIRELYPEAEVEVEPLPDNTVRLRVRFPGGSAGG [r13_291_TrMRF],4.22 ± 0.093
9,SAGGSAGGSAKVKAEIEYDPATGKITIKLITEDERGGKTEEAEITIPIPIPAPPAPPADVDKSAGGSAGGSA [r18_361_TrMRF],-0.0238 ± 0.12
10,SAGGSAGGSAGGGMAYTVETEVTLTPDGTRVVRTTVTIEDTEVEETHVTPVAPAAPEGLSAGGSAGGSAGGS [r10_898_JUSTAS],-0.806 ± 0.17
11,SAGGSAGGSAGGGITIKGPGSVTVTVPASDVASISVDPATGTVTVEIPATGTTLTVPPASAGGSAGGSAGGS [r10_200_JUSTAS],1.03 ± 0.037
12,SMKITLEKGNYKIEIYKHPETGEIIAKVYDKNGKLVAVAHIKIEVEPDKDGKKIIKKIEIHVHILKEDPKSA [r9_262_TrMRF],2.58 ± 0.22
13,SAGGSAGGSAGGKDGYYKAIIELPGGEKREIVFKYEDFEEALKSLGIPLENVKIVKIEEGSAGGSAGGSAGG [r7_211_TrMRF],3.3 ± 0.2
14,SAGGSAMKLTLKDKKGNTLFLEVEEKTSEDGTPYYEVKIYYPNTNKVEYAEVPVENLEEFAKKLADSAGGSA [r15_92_TrMRF],3.21 ± 0.09
15,SAGGSAGGSAGPPNKPVYVRVRIQMPNGKKKTFWFKDVEQIEKNLKEEFGIRDIEIEPIKSAGGSAGGSAGG [r17_508_TrROS],1.62 ± 0.028

# Experiment: folding stability dG unfold from chymotrypsin proteolysis; higher = more stable
# Outline: as §1
row,Sequence,folding stability dG unfold [kcal/mol]
1,SAGGSAGGSAGGGNLALPPRYRITVRIEKDGSTSTVEFDSEEELAALDDPGLTVTEVREESAGGSAGGSAGG [r7_793_JUSTAS],1.18 ± 0.036
2,SAGGSAGGSAGGKTLTLEIEINGKLYKIEFSGDSIKITEIKVKPKPKKKEFFSEEELKKKSAGGSAGGSAGG [r7_748_TrROS_Hall],2.55 ± 0.13
3,SAGPTIMIPMPPKESLEEAVEKAIEWIREFFPDNLKPGKKIKIFVHVWDPDNGKQYWVTIEIPIPKGELSAG [r5_916_TrROS],3.62 ± 0.057
4,SAGGSAGGSAGGAPDLSLPDVRPRVLVRNPATGKWYEFTSLEELEREIKSGRAEVLEISSAGGSAGGSAGGS [r10_520_TrMRF],0.704 ± 0.11
5,SAGGSAGGSAGGGSTTTTTETYPENGLIFTTTTTVFDDGSLSVTTTTSPLPLPPSPFIATSAGGSAGGSAGG [r7_103_JUSTAS],0.394 ± 0.18
6,SAGGEFEVYRVKSPDSVVTVTVLPDRVVVNLTDEKNPKVVPIPYPPGHPPTLEDVLALLKSLGFKVEPSAGG [r13_687_TrMRF],1.65 ± 0.043
7,SAGGKWKPIGKFEFTLPDGVKVTVTVEENPPLELKITAEVEIYVPPPKPPVPPLGPEEVKKWLEENKSAGGS [r16_6_TrMRF],1.86 ± 0.05
8,SAGGSAKITLWIWMPPGNPDKMAEEIADYLAERHGWTVKIKDVQIERDPEDDQVWIPVKIEIQPPPSAGGSA [r15_70_TrROS],1.39 ± 0.31
9,NWYIDIDEIKEAINDAPPGDEVELPFKFYDPDDGQKFKFRVTVEVNPNGKLTSVRIQHPGSGKPHAEINLKS [r1_165_TrROS],1.25 ± 0.13
10,SAGGSAGGSAGGGMTITTTSSVSESDGGLTLSTTTTAFDPVTGTWTPLTTTTTTLPPTTSAGGSAGGSAGGS [r10_51_JUSTAS],0.778 ± 0.041
11,SAGGSAGGSAKKIVIKVKPGMTEEEILEEIAKKLGLKPEKIKKIEIERNKDGYLYVTIEIESAGGSAGGSAG [r3_26_TrROS_Hall],3.87 ± 0.065
12,SAGGSAGGSAGGTLEFTFPGEGNLLAKVRIDLGESGNVRIDVYIYDGDTLLAKATFTLNLSAGGSAGGSAGG [r7_79_TrMRF],5.46 ± 0.11
13,SAGGSAGGSAGMIVIKNPETKEYYVIKFDGKEYVIELSEDELKELLEKLKGKDVEIKKLPSAGGSAGGSAGG [r11_57_TrROS_Hall],1.93 ± 0.048
14,SAGGSARVIRNPDYGMWIRLQPTDGGYTVQIEMYRPDPEDGKPKRRPMTHTIPPDDLPPEIRDLLKSAGGSA [r15_703_TrROS],0.515 ± 0.12
15,SAGGSAEKVEIKVTYDKETGKVTVEIRVEVDLSEEQLKKLKELAEELGLEVEVTVEVRYEPPPPKESAGGSA [r15_542_TrROS_Hall],2.18 ± 0.31

# Reference: the supplement of paper PMC12764529
